The values below are quoted from earlier work in article PMC12208613.

The data set has as its target CD7 (Homo sapiens) (UniProt P09564).

Where “and” joins values, the source holds several entries; their conditions need not be identical. Equal values may be shown once.

Chain of CD7 (Homo sapiens) (P09564 26-180): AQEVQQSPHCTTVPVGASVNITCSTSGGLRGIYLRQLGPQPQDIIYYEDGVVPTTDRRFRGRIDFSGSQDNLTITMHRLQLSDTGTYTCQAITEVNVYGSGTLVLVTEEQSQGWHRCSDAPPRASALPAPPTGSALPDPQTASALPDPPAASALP
Chain of K12 (Q8WVN6 29-145): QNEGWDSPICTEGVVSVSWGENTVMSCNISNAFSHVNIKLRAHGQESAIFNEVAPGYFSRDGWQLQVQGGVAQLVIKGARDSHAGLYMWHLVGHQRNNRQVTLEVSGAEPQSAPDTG

Take K12 (from UniProt Q8WVN6): the Kd was 10 nM and 38 nM.
